Data as given in paper PMC12137620, “Targeting the MDK/c‐Myc complex to overcome temozolomide resistance in glioma” (Clinical and Translational Medicine, 2025).

Experiments:
His-tagged c-Myc [1] = biological target: T1, His-tagged c-Myc (human, UniProt P01106 1-454, labelled with the NT-647-NHS dye); test: MST; Monolith NT.115; NT-647-NHS-labelled c-Myc held constant (416 nM stock mixed 1:1), MDK in 16 serial dilutions; PBSP (1x PBS + 0.1% Pluronic F-127); standard treated capillaries; details: both partners purified
T1 construct: c-Myc; plasmid constructed by Tsingke Biotechnology Co., Ltd. (Beijing); also called recombinant c-Myc protein; source: bacterial BL21 cells, purified (Ni-NTA agarose)

His-tagged c-Myc [2] = biological target: T1, His-tagged c-Myc; test: MST; as the MST of MDK and c-Myc, after the addition of 1 µM ACT001; details: both partners purified

T1 sequence (P01106 whole entry): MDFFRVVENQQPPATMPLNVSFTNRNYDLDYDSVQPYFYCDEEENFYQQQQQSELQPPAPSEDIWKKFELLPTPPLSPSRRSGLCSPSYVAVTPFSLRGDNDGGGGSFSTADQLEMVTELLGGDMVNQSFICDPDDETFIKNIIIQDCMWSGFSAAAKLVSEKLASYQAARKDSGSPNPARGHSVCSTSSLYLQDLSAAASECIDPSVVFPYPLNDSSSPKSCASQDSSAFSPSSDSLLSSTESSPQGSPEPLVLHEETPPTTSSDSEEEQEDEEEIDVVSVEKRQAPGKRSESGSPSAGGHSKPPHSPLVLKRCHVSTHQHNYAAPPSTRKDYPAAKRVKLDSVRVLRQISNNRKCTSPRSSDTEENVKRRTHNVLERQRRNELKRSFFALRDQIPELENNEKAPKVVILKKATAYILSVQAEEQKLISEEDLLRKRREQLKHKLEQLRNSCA

Kd (His-tagged c-Myc [1]): 18.8 nM
Kd (His-tagged c-Myc [2]): 1540 nM
B1: Recombinant human MDK protein (natural protein, UniProt P21741 21-143, looked up)
chain: VAKKKDKVKKGGPGSECAEWAWGPCTPSSKDCGVGFREGTCGAQTQRIRCRVPCNWKKEFGADCKYKFENWGACDGGTGTKVRQGTLKKARYNAQCQETIRVTKPCTPKTKAKAKAKKGKGKD
notes: recombinant human midkine, bought; also called midkine; source: bought: Zeye Biotechnology Corporation (ZY631H02P, Shanghai)
